In article PMC5643311:

Tests used:
Assay in all cases: co-immunoprecipitation, blot
Details in all cases: reference: wild type, EGF; sites S303
RelA/p65 [1] = molecular target: RelA/p65 (UniProt Q04206)
RelA/p65 [2] = molecular target: RelA/p65 (UniProt Q04206); remark: listed apart in the source
RelA/p65 [3] = molecular target: RelA/p65 (UniProt Q04206); remark: listed apart in the source

Measured: binding against the reference

MIIP (migration and invasion inhibitory protein) (from UniProt Q5JXC2) S303A, EGF
weaker: all assays above
